Experimental data as given in US20230065153A1 (HIROSHIMA UNIVERSITY, published 2023).

Legend:
[1] = target: T1, human integrin α10 (human, UniProt O75578 23-1167); assay: FACS on human integrin α10 introduced CHO cells
T1 construct: whole, on cells
T1 sequence (looked up): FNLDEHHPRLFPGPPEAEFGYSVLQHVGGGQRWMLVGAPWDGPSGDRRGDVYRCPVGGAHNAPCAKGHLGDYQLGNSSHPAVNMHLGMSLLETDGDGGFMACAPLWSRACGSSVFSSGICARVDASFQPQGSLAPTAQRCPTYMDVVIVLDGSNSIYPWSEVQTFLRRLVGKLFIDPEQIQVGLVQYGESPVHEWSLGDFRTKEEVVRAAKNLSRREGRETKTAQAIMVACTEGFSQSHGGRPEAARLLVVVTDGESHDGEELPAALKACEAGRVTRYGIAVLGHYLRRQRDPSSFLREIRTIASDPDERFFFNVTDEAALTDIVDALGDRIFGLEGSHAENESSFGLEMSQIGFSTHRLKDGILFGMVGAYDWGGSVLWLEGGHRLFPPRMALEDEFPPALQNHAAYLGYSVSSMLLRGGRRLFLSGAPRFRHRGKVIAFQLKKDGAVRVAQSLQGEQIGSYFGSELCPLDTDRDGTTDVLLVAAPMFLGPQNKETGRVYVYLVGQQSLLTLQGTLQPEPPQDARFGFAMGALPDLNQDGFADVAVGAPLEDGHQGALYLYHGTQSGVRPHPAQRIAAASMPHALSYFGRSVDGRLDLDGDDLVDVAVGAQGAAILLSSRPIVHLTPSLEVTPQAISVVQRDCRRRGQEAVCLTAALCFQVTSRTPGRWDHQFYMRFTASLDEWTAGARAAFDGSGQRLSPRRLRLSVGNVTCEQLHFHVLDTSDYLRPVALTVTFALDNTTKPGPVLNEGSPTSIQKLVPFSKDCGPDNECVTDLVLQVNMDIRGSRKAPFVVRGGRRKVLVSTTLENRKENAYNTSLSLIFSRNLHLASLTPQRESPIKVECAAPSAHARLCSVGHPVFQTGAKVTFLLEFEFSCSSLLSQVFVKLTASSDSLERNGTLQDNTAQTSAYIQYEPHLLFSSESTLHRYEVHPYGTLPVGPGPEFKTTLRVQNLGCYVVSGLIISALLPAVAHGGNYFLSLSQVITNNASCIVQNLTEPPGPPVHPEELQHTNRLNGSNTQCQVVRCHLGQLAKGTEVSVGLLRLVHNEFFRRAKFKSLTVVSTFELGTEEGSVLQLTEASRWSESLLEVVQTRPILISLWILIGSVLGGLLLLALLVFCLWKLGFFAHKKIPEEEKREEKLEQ
Procedure: (§1) Reactivity (specificity) with respect to α11 in the antibody which has been converted into IgG was analyzed based on presence or absence of reactivity with respect to other collagen binding integrins α1, α2, and α10. First, reactivity of the antibody with respect to the CHO cell and the human integrin α11 introduced CHO cell was analyzed by FACS. Subsequently, reactivity of the antibody with respect to a human colorectal carcinoma cell line (SW480 cell: cell line expressing endogenous α1 and α2) and a human integrin α10 introduced CHO cell was analyzed by FACS. The reaction conditions of FACS using the IgG antibody are as follows. That is, the antibody as a primary antibody was added to a cell at a concentration of 5 μg/ml to react with the cell on ice for 25 minutes. After washing, PE labeled anti-mouse IgG antibody as a secondary antibody was added to the cell at a concentration of 2 μg/ml to react with the cell on ice for 15 minutes. The subsequent FACS processes were carried out under the same conditions.

[2] = target: T2, integrin α2 (endogenous on human colorectal carcinoma SW480 cells) (human, UniProt P17301 30-1181); assay: FACS on SW480 cells expressing endogenous α1 and α2
T2 construct: whole, on cells
T2 sequence (looked up): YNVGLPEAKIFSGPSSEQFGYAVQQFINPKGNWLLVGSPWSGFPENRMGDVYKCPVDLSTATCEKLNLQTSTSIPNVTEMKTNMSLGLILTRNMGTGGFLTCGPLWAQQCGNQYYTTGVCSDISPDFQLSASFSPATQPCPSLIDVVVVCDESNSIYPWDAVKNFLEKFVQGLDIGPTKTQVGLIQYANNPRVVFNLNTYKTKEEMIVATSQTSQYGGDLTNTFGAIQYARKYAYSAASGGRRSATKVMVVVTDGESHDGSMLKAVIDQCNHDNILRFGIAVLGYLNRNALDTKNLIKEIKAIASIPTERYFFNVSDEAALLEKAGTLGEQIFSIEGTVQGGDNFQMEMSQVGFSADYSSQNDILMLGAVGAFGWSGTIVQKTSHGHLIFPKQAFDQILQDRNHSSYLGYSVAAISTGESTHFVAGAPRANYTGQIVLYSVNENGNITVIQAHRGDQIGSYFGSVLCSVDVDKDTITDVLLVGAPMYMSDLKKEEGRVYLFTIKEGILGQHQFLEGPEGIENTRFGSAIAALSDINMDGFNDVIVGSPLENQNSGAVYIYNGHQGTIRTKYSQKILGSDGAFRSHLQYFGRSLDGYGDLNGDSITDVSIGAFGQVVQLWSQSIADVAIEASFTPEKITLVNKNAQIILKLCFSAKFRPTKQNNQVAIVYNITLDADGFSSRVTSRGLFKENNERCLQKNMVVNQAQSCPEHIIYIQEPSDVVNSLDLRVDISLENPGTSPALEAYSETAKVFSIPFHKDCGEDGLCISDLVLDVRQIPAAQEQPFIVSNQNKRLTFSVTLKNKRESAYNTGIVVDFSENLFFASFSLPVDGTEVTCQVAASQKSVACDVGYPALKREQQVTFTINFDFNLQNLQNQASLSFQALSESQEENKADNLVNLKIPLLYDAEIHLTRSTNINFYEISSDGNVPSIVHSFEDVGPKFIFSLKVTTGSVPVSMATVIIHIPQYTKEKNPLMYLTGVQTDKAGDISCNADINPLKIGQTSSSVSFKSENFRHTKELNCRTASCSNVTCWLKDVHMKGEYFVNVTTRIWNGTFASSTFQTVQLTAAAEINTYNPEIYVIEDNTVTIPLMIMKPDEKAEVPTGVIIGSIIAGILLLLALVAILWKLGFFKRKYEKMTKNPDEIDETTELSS
Procedure: as §1

[3] = target: T3, integrin α1 (endogenous on human colorectal carcinoma SW480 cells) (human, UniProt P56199 29-1179); assay: as above
T3 construct: whole, on cells
T3 sequence (looked up): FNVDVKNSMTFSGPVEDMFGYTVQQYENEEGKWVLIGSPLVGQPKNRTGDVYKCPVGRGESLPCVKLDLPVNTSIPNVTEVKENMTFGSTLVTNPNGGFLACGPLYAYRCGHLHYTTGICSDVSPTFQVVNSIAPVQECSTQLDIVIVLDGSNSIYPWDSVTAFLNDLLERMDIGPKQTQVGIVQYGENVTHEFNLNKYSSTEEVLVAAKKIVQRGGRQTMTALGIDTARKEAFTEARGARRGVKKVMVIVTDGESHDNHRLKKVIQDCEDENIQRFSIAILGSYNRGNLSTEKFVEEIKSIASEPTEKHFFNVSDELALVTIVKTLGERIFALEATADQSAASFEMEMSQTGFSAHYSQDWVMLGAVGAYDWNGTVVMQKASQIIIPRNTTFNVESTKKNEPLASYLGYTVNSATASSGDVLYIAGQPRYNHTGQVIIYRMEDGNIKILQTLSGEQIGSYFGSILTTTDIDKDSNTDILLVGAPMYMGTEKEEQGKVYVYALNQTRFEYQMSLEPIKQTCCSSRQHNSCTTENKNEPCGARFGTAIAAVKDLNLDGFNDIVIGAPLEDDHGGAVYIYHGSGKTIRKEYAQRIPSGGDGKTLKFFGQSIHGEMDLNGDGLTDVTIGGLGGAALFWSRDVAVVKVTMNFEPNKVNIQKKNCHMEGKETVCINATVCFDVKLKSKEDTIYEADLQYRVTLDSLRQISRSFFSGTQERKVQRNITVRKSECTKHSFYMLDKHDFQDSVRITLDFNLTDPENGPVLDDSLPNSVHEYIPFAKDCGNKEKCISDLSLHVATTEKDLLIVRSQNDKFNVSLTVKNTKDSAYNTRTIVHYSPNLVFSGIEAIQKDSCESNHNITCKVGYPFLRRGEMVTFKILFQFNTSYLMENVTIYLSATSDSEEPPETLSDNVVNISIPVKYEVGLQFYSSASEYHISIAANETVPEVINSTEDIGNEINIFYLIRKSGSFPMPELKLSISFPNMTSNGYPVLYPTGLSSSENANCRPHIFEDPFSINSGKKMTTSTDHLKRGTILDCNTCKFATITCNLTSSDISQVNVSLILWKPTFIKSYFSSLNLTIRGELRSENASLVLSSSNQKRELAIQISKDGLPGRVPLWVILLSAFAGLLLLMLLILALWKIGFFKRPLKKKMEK
Procedure: as §1

Measured: binding result

B1: wild-type #33 IgG (anti-integrin α11 monoclonal antibody, chicken-mouse chimeric IgG1) (antibody, V domains shown)
VH: AVTLDESGGGLQTPGGALSLVCKGSGFTFSSYGMQWVRQAPGRGLEWVAGIDDDGSFTLYGAAVDGRATISRDNGQTTVRLQLSDLRAEDTATYFCAKGGYGYCWYGDAACIDAWGHGTEVIVSS
VL: AVTQPSSVSANPGETVKITCSGGSDSWYGWYQQKSPGSAPVTVIYSNNQRPSNIPSRFSGSTSGSTSTLTITGVQADDEAVYFCGSRDSSYDGIFGAGTTLTVLK
notes: Chicken VH linked to a mouse IgG1 constant region and chicken VL linked to a mouse Igκ region; His-tagged at the C-terminal; also called the antibody
no binding (tested: 5 µg/ml): all assays above
